Target: TerL P74-26 nuclease domain (residues 256–485) (Thermus phage P74-26)
Assay: SEC

stoichiometry N: 2
Substance: TerL P74-26 nuclease domain (residues 256–485) (domain or fragment)

From PMC5389665
